Test results taken from PMC10330345 (Journal of immunology (Baltimore, Md. : 1950), 2023).
Residue numbers refer to the chain shown, from its start. Names may count otherwise.

B1: BTN2A1 (271–527) wild type (domain or fragment, human, UniProt Q7KYR7 271-527, looked up)
chain: KLQKEKKILSGEKEFERETREIALKELEKERVQKEEELQVKEKLQEELRWRRTFLHAVDVVLDPDTAHPDLFLSEDRRSVRRCPFRHLGESVPDNPERFDSQPCVLGRESFASGKHYWEVEVENVIEWTVGVCRDSVERKGEVLLIPQNGFWTLEMHKGQYRAVSSPDRILPLKESLCRVGVFLDYEAGDVSFYNMRDRSHIYTCPRSAFSVPVRPFFRLGCEDSPIFICPALTGANGVTVPEEGLTLHRVGTHQSL
B2: BTN2A1 (271–527) L318G (domain or fragment, human, UniProt Q7KYR7 271-527, looked up)
chain: B1 chain with L48G
B3: BTN2A1 (271–527) L318GW320A (domain or fragment, human, UniProt Q7KYR7 271-527, looked up)
chain: B1 chain with L48G, W50A
B4: BTN2A1 (271–527) W320A (domain or fragment, human, UniProt Q7KYR7 271-527, looked up)
chain: B1 chain with W50A
B5: BTN2A1 (309–527) wild type (domain or fragment, human, UniProt Q7KYR7 309-527, looked up)
chain: QVKEKLQEELRWRRTFLHAVDVVLDPDTAHPDLFLSEDRRSVRRCPFRHLGESVPDNPERFDSQPCVLGRESFASGKHYWEVEVENVIEWTVGVCRDSVERKGEVLLIPQNGFWTLEMHKGQYRAVSSPDRILPLKESLCRVGVFLDYEAGDVSFYNMRDRSHIYTCPRSAFSVPVRPFFRLGCEDSPIFICPALTGANGVTVPEEGLTLHRVGTHQSL

Biological target: the molecule itself
Experiment: SEC

Stoichiometry N, 2:
B1
B2
B3
B4
B5
